Reference: the nanobody polyreactivity screen of Harvey et al. (2022)

Test: yeast display, Sf9 membrane polyspecificity reagent, FACS + sequencing; frameworks hold sequencing errors
Outline: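 Using colony PCR, genes from sorted yeast display clones were amplified, then sequenced on MiSeq at 2 × 250 and filtered by CDR length. The clones had been stained with 10% biotinylated, detergent-solubilized Sf9 membrane reagent for 1 hour at 4 °C and sorted by FACS into low and high (top ~1%) gates on anti-HA and streptavidin fluorescence. Polyreactivity labels come from the gate of origin.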

Question: For “QVQLVESGGGLVQAGGSLRLSCAASGIICGDNALGLYRQAPGKEWELVAAISSSGTSTNYADSVKGRFTISRDNAKNTVYLQMNSLKPEETAVYYCAKDVLPPYPQSRSGGDYWGQGTQVTVSS”, which “polyreactivity (PSR sort gate)” value is on record?
Answer: The value was “low polyreactivity”.

Question: For “QVQLEESGGGLVQAGGSLRLSCAASGSIFYDYAMGWYRQAPGKERELVAAISKSDGSTYYADSVKGRFTISRDNAKNTVYLQMNSLKPEDTAVYYCNADLIYSYPPEYDYWGQGTQVTVSS”, which “polyreactivity (PSR sort gate)” value is on record?
Answer: The value was “high polyreactivity”.

Question: Which “polyreactivity (PSR sort gate)” value does the source give for “QVQLVESGVGFVQAGGSLRLSCAASGRIFGYYMGWYIQAPGKERELVAGISKRGTRTRYADSVKGRFTISRDNAKNTVFLQMNSLKPEDTAVYYCNADYYVSNMDYWGQGTQVTVSS” here?
Answer: The value was “high polyreactivity”.

Question: With “QVQLVESGGGLVQAGGSLRLSCAASGRNFFANAMGWYRQAPGKERELVASITRRSGGTYYADSVKGRFTISRDNAKNTVYLQMISLKPEDTAVYYCAARYTFPKDLYYYWGQGTQVTVSS” as the sequence, how does the “polyreactivity (PSR sort gate)” value read?
Answer: The value was “high polyreactivity”.

Question: Which “polyreactivity (PSR sort gate)” value does the source give for “QVQLVESGGGLVQAGGSLRLSCAASGRIFKYYAMGWYRQAPGKERELVAAITSGGSTYYADSVKGRFTISRDNAKNTVYLQMNSLKPEDTAVYYCNADGYLSYAFDYWGQGTQVTVSS” here?
Answer: Its value is “low polyreactivity”.

Question: For “QVQLVESGGGLVQAGGSLRLTCAASGTIFVRLDMGWYRQAPGNEREFVATIGSGSSTYYADSVKGSFTISRDNVKNTVYLQMNSLKPEDTAVYYCAVSAAEQSRHYYWDQGTQVTVSS”, which “polyreactivity (PSR sort gate)” value is on record?
Answer: The value was “low polyreactivity”.

Question: For “QVQLVESGGGLVQAGGSLRLSCAASGRTFGNYAMGWYRQAPGKDRELVAALSTTGGRTSYADSVKGRFTISRDNAKNTVYLQMNSLKPEDTAVYYCNVYTTSQARRKRIDYDFWGQGTQVTVSS”, which “polyreactivity (PSR sort gate)” value is on record?
Answer: Its value is “high polyreactivity”.

Question: With “HFQLVESGGGLVQAGGSLRLSCAASGSSYSNYAMGWYRQAPGKEREMVAAISSSGSTYYADSVKGRFTISRDNAKNTVYLQLHRLKPEDTAVYYCAAGKDRRTSRYRYDSWGQGTQVTVSS” as the sequence, how does the “polyreactivity (PSR sort gate)” value read?
Answer: Its value is “high polyreactivity”.

Question: For “QDQLVESGGGLVQAGGSLRLSCAASGRTFSYYTMGWYRQPPGKERELVARISNRGTNTYYADSVKGRFTISRDNAKNTVYLQLNSLKPEDTAVYYCAKYYYPSIVGYDSWGQGTQVTVSS”, which “polyreactivity (PSR sort gate)” value is on record?
Answer: The value was “low polyreactivity”.

Question: Which “polyreactivity (PSR sort gate)” value does the source give for “QVQLVESGGGLVQAGGSLRLSCAASGLIFSYYAMGWYRQAPGKERELVAAISRGGSTNYADSVKGRFTISRDDAKNTVYLQMNSLKPEDTAVYYCAARWQWLNGYYYWGQGTQVTVSS” here?
Answer: The value was “high polyreactivity”.

Question: For “HAQLQESGGGLVQAGGSLRRSCAASGSIFRFSGMGWYRRAPGKERELVASIGFGSITYYADRVKGRFTISRDNANKTVYLQMNSLKPEDTAVYYCAVQVQDESWLDYWGQGTQVTVSC”, which “polyreactivity (PSR sort gate)” value is on record?
Answer: Its value is “low polyreactivity”.

Question: Which “polyreactivity (PSR sort gate)” value does the source give for “QVQLVQSGGGLVQAGGSLRLSCAASGLIFTTNPMGWYRQAPGKERQFVAAISPSGGSTYYADSVKGRFTISRDNAKNTVYLQMNCLKPEDTAVYSCGARYSPVWHKYYYWGQGTQVTVSS” here?
Answer: The value was “high polyreactivity”.

Question: With “QVQLVESGGGLVQAGGSLRLSCAASGSIVGIYVMGWYRQAPGKERELVAGISPRGGSTYYADSVKGRFTISRDYAKNTVYLQMNSLKPEDTAVYYCAAVPASFRYPMYYLGQGTQVTVSS” as the sequence, how does the “polyreactivity (PSR sort gate)” value read?
Answer: The value was “low polyreactivity”.

Question: With “QVQLVESGGGLVQAGGSLRLSCAASGRIFRVNAMGWYRQAPGKERELVAAISWIGGRTYYADSVKGRFTISRDNAKNTVYLQMNSQKPEDTAVYYCAAVGSSSTHWASRSYRYNYWGQGTQVTVSS” as the sequence, how does the “polyreactivity (PSR sort gate)” value read?
Answer: Its value is “high polyreactivity”.

Question: Which “polyreactivity (PSR sort gate)” value does the source give for “QVQLVESGGGLVQAGGSLRLSCAASGSTFDIYAMGWYRQAPGNERELVAAISVSGGSTYYADSVKGRFTIARDNAKNTVDLQMNSLKPEDTAVYYCAAEAYTRFYQQFDYWGQGTQVTVSS” here?
Answer: Its value is “high polyreactivity”.

Question: For “QVQLVESAGGLVQAGASLRLSCAPSGSIFRINAMGWYRQAPGKERELVAAISTRSGRTYYADSVKGRFTISRDNAKNTVYLQMYSLNPEDTAVYYCARYRTQASGYGGYDYWGQGTQATVSS”, which “polyreactivity (PSR sort gate)” value is on record?
Answer: Its value is “high polyreactivity”.

Question: For “QVQLVESGGGLVQAGGSLRLSSAASGFTFRIYAMGWYRQAPGKERELVATISWSGTSTYYADSVKGRFTISRDNAKNTVYLQMNSLKPEDTAVYYCAKDGVSFYWLNKYYYWGQGTQVTVSS”, which “polyreactivity (PSR sort gate)” value is on record?
Answer: Its value is “low polyreactivity”.

Question: Which “polyreactivity (PSR sort gate)” value does the source give for “QVQLVESGRGLVQAGGSLRLSCAASGSTLATYTMGWYRQAPGKERELVPAISFGGSTYYADSVKGRFTISRDNAKNTVYLQMNSLKPEDTAVYYCAVYGDSYWGAYYYSDGYWGQGTQVTVSS” here?
Answer: Its value is “low polyreactivity”.

Question: For “QVQLVQSGGGLVQAGASLRLSCAASGSTFWKYAMGWYRQAPGQERELVASIRSGGSTYYADSVKGRFTISRDNAKNTVYLQMNSLIPEDTAVYYCAAVTHGRYDWVQGTQVTVSS”, which “polyreactivity (PSR sort gate)” value is on record?
Answer: The value was “high polyreactivity”.

Question: Which “polyreactivity (PSR sort gate)” value does the source give for “QVHLVESGGGLVQAGGSLRLSCAASGRIFYKNAMGWYRQAPGKERELVASITVGGGRTSYADSVKGRFTISRDNAKNTVYLQMNSLKPEDTAVFYCAATTGKTTFRATWYDYWGQCTQVTVSS” here?
Answer: Its value is “low polyreactivity”.

Question: For “QVQLVESGGGLVQAGGSLRLRSAATGRTYRLYAMGWYRQAPGKERELVAAITRGGRTNYADSVKGRFTISRDNAKNTVYLEMNSLKPEDTAVYYCAARYRLPIPGTQYEYWGQGTQVTVSS”, which “polyreactivity (PSR sort gate)” value is on record?
Answer: Its value is “low polyreactivity”.

Question: Which “polyreactivity (PSR sort gate)” value does the source give for “QVQLVESGGGLVQAGGSLRLSCAASGLTFWVYAMGWYRQAPGKERELVAAISGSGARTYYADSVKGRFTISRDNAKNTVYLQMNSLKPEDTAVYYCAARAVRATAKYEYWGQGTQVTVSS” here?
Answer: Its value is “high polyreactivity”.

Question: For “QVQLVESGGGIVQAGGSLPLICAASGFTFDWYALGWYRQAPGKERELVAAITTSGGTTYYADSVKGRFTMSRDNAKITVYLQMNSLKPEDTAVFYCAADADTDVFYILQEYDYWGQGTQVTVSS”, which “polyreactivity (PSR sort gate)” value is on record?
Answer: The value was “low polyreactivity”.

Question: For “QVQLVESGVGLVQAGGSLRLSCAASGFIFGVTTMGWYRLAPGKERELVAAISTLASSTFDADSVKGRFTISRDNAKNTVYLQMNSLKPEDTAVYYCAVDLNWFFSFGLDYWGQGTQLTVSS”, which “polyreactivity (PSR sort gate)” value is on record?
Answer: The value was “low polyreactivity”.

Question: With “QVQLVESGGGLVQAGGSLRLSCAASGSTFRANLMGRYRQAPGKERELVAAITSAGGSTYYADSVKGRFTISRDNAKNTVYIQMNSLKPEDTAVYYCNKQERPGPGRARYNYWGQGTQVTVSS” as the sequence, how does the “polyreactivity (PSR sort gate)” value read?
Answer: The value was “high polyreactivity”.

Question: For “QDQLVESGGGLVQAGGSLRLSCAASGIIFPQYTMGWYRQAPGKERELVAVITSGGSTYYADSVKGRFTISRDNAKNTVYLQMNSLKTEDTAVYYCAADAFYKFDYWGQGTQVTVSS”, which “polyreactivity (PSR sort gate)” value is on record?
Answer: Its value is “high polyreactivity”.

Question: For “QLQLVESGGGLVQAGGSLRLSCAASGSTFTWKAMGWYRQAPGKERELVAAITSGCRTYYADSVKGRFTISRDNAKNTVYIEMNSLKPEDTAVYYCAAKVRHYYSASNYYYWGQGTQVTVSS”, which “polyreactivity (PSR sort gate)” value is on record?
Answer: Its value is “high polyreactivity”.

Question: With “QVQLVESGGGLVQAGGSLRLSCAASGFTFAFYAMGWYSPAPGKVRELVAAISWDGVTTYYADSVKGRFTISRDNAKNTVYLQMNSLKPEDTAVYYCAADYPDYAASFWPSGMYYWGQGTQVTVSS” as the sequence, how does the “polyreactivity (PSR sort gate)” value read?
Answer: Its value is “low polyreactivity”.

Question: Which “polyreactivity (PSR sort gate)” value does the source give for “QVQHVESARGLVHAGGSLRLSCAASGGTFQYYAMGLSRQAPGKERELVAAISSSGSTYYADSVKGRFTISRDNAKNTVYLQMNSLKPEDTAVYYCAAGHISIYYYTFYYWGQGTQVTVSS” here?
Answer: Its value is “high polyreactivity”.

Question: For “QVQLVESGGGLVQAGGSLRLSCAASGGTFQINAMGWYIQAPGKERELVAAISRSGGSTSYADSVKGRFTISRDNAKNTVYLQMNSLKPQDTAVYYCNKRVRATAWYDYWGQGTQVTVSS”, which “polyreactivity (PSR sort gate)” value is on record?
Answer: The value was “high polyreactivity”.

Question: Which “polyreactivity (PSR sort gate)” value does the source give for “QVQLVESGGGLVQAGGSLRISCAASGSNLSPYVMGWYRQAPGKERELVSTISRSGGRTYYADSEKGRFTISRDNAKNTFNLQMNSLKPEDTAVYYCAREDWGSYSDMDSWGQGTQVTVSS” here?
Answer: Its value is “low polyreactivity”.

Question: Which “polyreactivity (PSR sort gate)” value does the source give for “QVQLVESGEGLVQAGGSLRLSCAASGSIFTYNAMGWYRQAPGKERELVAAISRGGSTYYADSVKGRFSISRDNAKNTVNLQMNSLIPEDTAVYYCNARRYRHDGYWGQGTQVTVSS” here?
Answer: Its value is “high polyreactivity”.
